This assay concerns the target human PDL1 expressed on 293T-PDL1 cells (human) (UniProt Q9NZQ7). Kind of assay: flow cytometry on 293T-PDL1 cells.

human PDL1 expressed on 293T-PDL1 cells (human), sequence (Q9NZQ7 19-290): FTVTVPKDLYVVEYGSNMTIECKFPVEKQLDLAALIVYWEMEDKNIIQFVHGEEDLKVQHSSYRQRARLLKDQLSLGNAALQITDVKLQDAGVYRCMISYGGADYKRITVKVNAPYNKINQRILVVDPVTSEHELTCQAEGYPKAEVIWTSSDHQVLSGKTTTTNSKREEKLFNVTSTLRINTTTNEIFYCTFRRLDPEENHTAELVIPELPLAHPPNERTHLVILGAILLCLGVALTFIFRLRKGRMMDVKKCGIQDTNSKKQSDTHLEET

For IgG1 irrelevant antibody, the MFI.Max was 44.1.

Source of the values: patent EP4667489A1.
